Results published in doi:10.1101/580043.

How the values were obtained:
[1] = molecular target: MBP-tagged PRG-1 PIWI domain (C. elegans); test: MST
[2] = molecular target: Recombinant full-length MBP-tagged DEPS-1 (C. elegans) (UniProt Q9N303); test: MST
Sequence of Recombinant full-length MBP-tagged DEPS-1 (C. elegans) (Q9N303 whole entry): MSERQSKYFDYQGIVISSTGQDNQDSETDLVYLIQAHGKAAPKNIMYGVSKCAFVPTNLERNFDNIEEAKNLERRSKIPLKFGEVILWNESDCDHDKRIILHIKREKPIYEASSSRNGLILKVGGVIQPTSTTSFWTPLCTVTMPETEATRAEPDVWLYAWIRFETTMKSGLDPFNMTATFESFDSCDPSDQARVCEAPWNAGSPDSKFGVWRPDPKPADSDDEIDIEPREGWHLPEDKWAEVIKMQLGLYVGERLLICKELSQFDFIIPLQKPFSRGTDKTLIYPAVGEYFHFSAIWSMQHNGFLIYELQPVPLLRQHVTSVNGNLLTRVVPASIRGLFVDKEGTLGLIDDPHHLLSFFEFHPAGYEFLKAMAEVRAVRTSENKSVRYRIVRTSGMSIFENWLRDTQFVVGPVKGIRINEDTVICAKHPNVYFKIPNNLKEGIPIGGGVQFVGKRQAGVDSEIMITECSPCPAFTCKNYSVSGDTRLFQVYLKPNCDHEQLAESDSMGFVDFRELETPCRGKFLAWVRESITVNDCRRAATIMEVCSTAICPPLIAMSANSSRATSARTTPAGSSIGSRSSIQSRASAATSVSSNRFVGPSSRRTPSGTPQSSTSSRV

Sequence of MBP-tagged DEPS-1 N-terminal fragment (DEPS-1^frag1) (domain or fragment) (Q9N303 whole entry, the tested form may be a part): as the sequence (Q9N303 whole entry) above

Kd [1] [nM]	Kd [2] [nM]	Substance
151		MBP-tagged DEPS-1 N-terminal fragment (DEPS-1^frag1) (domain or fragment)
	349	MBP-tagged PRG-1 PIWI domain (domain or fragment)
